Source: patent WO2020239014A1 (dated 2020)
“And” between values parts separate entries of the source, which are not always exact repeats. Identical values can stand only once.

T1: CGRPα (4013281-1000, Bachem) (human, UniProt P06881 83-119, not fully specified)
T1 construct: mature; ELISA: coated Bachem CGRPα; also called α-CGRP; human CGRP
T1 peptide (looked up): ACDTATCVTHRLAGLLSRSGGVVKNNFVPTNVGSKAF


How the values were obtained:
[1] = target: T1, CGRPα (4013281-1000, Bachem); test: ELISA, coated CGRPα titrated (0-0.2 μg/mL), antibody fixed at 1 μg/mL
[2] = target: T1, CGRPα (4013281-1000, Bachem); test: BLI (Octet RED 96), α-CGRP on streptavidin biosensors, antibody in solution, 1:1 model
[3] = target: T1, CGRPα (4013281-1000, Bachem); test: cell-based or functional assay

EC50 [1]	Kd [2]	koff [2]	kon [2]	EC50, cell-based cAMP activation assay (HTRF) with CGRP [3]	Binder
0.0135 µg/mL and 0.036 µg/mL	< 1 pM	< 1e-07 s⁻¹	122000 M⁻¹ s⁻¹		CGRPM5-BA51.23-IgG2 (antibody, V domains shown, Humanized BA51, IgG2; also called CGRP-BA51.23; CGRP-BA51.23-IgG2) VH: QVQLVQSGAEVKKPGASVKVSCKASGYTFTRYTMHWIRQAPGQGLEWMGYIYPSSGYTIYNQKFQGRVTMTRDTSTSTVYMELSSLRSEDTAVYYCATEGHYAGNGNYEGYWGQGTTVTVSS VL: DIVMTQSPSSLSASVGDRVTITCRASSSISSNYLHWYQQKPGKAPKLLIYRTSNLASGVPSRFSGSGSGTDFTLTISSLQPEDFATYYCQQGSSIPFTFGQGTKLEIK
0.0106 µg/mL				44.9 µg/mL	CGRPM5-BA51.23-IgG2-N105L (antibody, V domains shown, IgG2; also called optimized BA51.23 antibody (N105L)) VH: QVQLVQSGAEVKKPGASVKVSCKASGYTFTRYTMHWIRQAPGQGLEWMGYIYPSSGYTIYNQKFQGRVTMTRDTSTSTVYMELSSLRSEDTAVYYCATEGHYAGLGNYEGYWGQGTTVTVSS VL: DIVMTQSPSSLSASVGDRVTITCRASSSISSNYLHWYQQKPGKAPKLLIYRTSNLASGVPSRFSGSGSGTDFTLTISSLQPEDFATYYCQQGSSIPFTFGQGTKLEIK
0.00844 µg/mL				32 µg/mL	CGRPM5-BA51.23-IgG2-N105D (antibody, V domains shown, IgG2; also called optimized BA51.23 antibody (N105D)) VH: QVQLVQSGAEVKKPGASVKVSCKASGYTFTRYTMHWIRQAPGQGLEWMGYIYPSSGYTIYNQKFQGRVTMTRDTSTSTVYMELSSLRSEDTAVYYCATEGHYAGDGNYEGYWGQGTTVTVSS VL: DIVMTQSPSSLSASVGDRVTITCRASSSISSNYLHWYQQKPGKAPKLLIYRTSNLASGVPSRFSGSGSGTDFTLTISSLQPEDFATYYCQQGSSIPFTFGQGTKLEIK
